Here are results for one substance from patent US20210188933A1.

The target of this test is IL-15RβγC. Kind of test: cell-based or functional assay.

In the case of “ALT-803 (IL-15N72D:IL-15RαSu/Fc complex) (from UniProt Q13261 31-95) (Fc fusion)”, the EC50 of ALT-803 stimulated proliferation of IL-15RβγC-bearing cells came to 0.016 nM.
